From patent publication US20200317768A1 (published 2020)
Positions count from the first letter of the chain named.

T1: cynomolgus monkey FcγRIIa1 extracellular domain with C-terminal His-tag (cynomolgus monkey)
T1 construct: also called cyno FcgRIIa1; cynoFcγRIIa1
T1 chain: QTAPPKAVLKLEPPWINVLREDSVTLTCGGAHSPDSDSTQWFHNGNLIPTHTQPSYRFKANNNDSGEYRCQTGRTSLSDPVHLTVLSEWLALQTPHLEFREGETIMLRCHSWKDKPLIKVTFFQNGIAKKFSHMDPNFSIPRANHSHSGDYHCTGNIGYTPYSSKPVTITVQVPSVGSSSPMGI

T2: cynomolgus monkey FcγRIIa2 extracellular domain with C-terminal His-tag (cynomolgus monkey)
T2 construct: also called cyno FcgRIIa2; cynoFcγRIIa2
T2 chain: T1 chain with P95T, T121A, I127K, A128S, K130N, D135N, R142Q

T3: cynomolgus monkey FcγRIIa3 extracellular domain with C-terminal His-tag (cynomolgus monkey)
T3 construct: also called cyno FcgRIIa3; cynoFcγRIIa3
T3 chain: T1 chain with P95T, T121A, A128S, H133P, D135N

T4: cynomolgus monkey FcγRIIb extracellular domain with C-terminal His-tag (cynomolgus monkey)
T4 construct: also called cyno FcgRIIb; cynoFcγRIIb
T4 chain: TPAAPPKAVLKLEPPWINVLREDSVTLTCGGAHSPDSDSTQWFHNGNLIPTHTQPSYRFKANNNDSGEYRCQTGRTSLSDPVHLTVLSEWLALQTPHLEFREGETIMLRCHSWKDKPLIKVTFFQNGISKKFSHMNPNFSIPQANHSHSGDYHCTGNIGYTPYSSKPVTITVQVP

T5: human FcγRIIaH extracellular domain with C-terminal His-tag (human, UniProt P12318 34-217)
T5 construct: also called human FcgRIIaH; FcγRIIa (type H)
T5 sequence: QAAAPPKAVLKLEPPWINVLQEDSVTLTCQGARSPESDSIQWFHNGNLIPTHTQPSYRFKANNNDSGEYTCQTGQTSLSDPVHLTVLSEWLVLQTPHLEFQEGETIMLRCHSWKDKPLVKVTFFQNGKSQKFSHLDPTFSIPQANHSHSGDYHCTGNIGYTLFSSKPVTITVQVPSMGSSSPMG

T6: human FcγRIIaR extracellular domain with C-terminal His-tag (human, UniProt P12318 34-217)
T6 construct: also called human FcgRIIaR; FcγRIIa (type R)
T6 chain: T5 sequence with H134R

T7: human FcγRIIb extracellular domain with C-terminal His-tag (human, UniProt P31994 43-217)
T7 construct: also called human FcgRIIb
T7 sequence: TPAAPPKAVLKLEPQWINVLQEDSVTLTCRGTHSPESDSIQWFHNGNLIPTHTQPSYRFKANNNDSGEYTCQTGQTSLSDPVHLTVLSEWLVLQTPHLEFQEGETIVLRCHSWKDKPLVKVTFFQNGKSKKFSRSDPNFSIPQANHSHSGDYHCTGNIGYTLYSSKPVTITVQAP

B1: M103205H795-MY209/M103202L889-SK1 (antibody, human IgG1, kappa)
heavy: QVTLKESGPVLVKPTETLTLTCTVSGIDLSHDDISWVRQAPGKGLEWVGIISYAGSTYYASWAKGRLTISKDTSKNQVVLTMTNMDPVDTATYYCARGVPAYSHGGDLWGQGTLVTVSSASTKGPSVFPLAPSSKSTSGGTAALGCLVKDYFPEPVTVSWNSGALTSGVHTFPAVLQSSGLYSLSSVVTVPSSSLGTQTYICNVNHKPSNTKVDKKVEPKSCDKTHTCPPCPAPELLNGPSVFLFPPKPKDTLMISRTPEVTCVVVDVSDEDPEVKFNWYVDGVEVHNAKTKPREELYNSTYRVVSVLTVLHQDWLNGKEYKCKVSNTALPKPIEKTISKAKGQPREPQVYTLPPSREEMTKNQVSLTCLVKGFYPSDIAVEWESNGQPENNYKTTPPVLDSDGSFFLYSKLTVDKSRWQQGNVFSCSVMHEALHNHYTQKSLSLSP
light: DIVMTQSPATLSLSPGERATLSCTSSQSVYHANWLSWFQQKPGQPPKLLIYWASTLAYGVPSRFSGSGSGTDFTLTISSLQPEDAATYYCAGGYGGGRYAFGQGTKVEIKRTVAAPSVFIFPPSDEQLKSGTASVVCLLNNFYPREAKVQWKVDNALQSGNSQESVTEQDSKDSTYSLSSTLTLSKADYEKHKVYACEVTHQGLSSPVTKSFNRGEC
notes: Substitutions introduced into M103205H795-SG1, expressed with M103202L889-SK1 as light chain; EU numbering
B2: M103205H795-MY341/M103202L889-SK1 (antibody, human IgG1, kappa)
heavy: B1 heavy with N238L, P398K
light: B1 light
notes: as for B1
B3: M103205H795-MY389/M103202L889-SK1 (antibody, human IgG1, kappa)
heavy: B1 heavy with N238T, S241L, L297Q, T328K
light: B1 light
notes: as for B1
B4: M103205H795-MY387/M103202L889-SK1 (antibody, human IgG1, kappa)
heavy: B1 heavy with N238T, S241V, L297Q, T328K
light: B1 light
notes: as for B1
B5: M103205H795-MY400/M103202L889-SK1 (antibody, human IgG1, kappa)
heavy: B1 heavy with N238T, L297Q, T328K, P333E
light: B1 light
notes: as for B1
B6: M103205H795-MY516/M103202L889-SK1 (antibody, human IgG1, kappa)
heavy: B1 heavy with N238T, S241V, S300L, T328K
light: B1 light
notes: as for B1
B7: M103205H795-MY340/M103202L889-SK1 (antibody, human IgG1, kappa)
heavy: B1 heavy with N238L, T328K, P398K
light: B1 light
notes: as for B1
B8: M103205H795-MY514/M103202L889-SK1 (antibody, human IgG1, kappa)
heavy: B1 heavy with N238T, S241V, L297Q, S300L, T328K
light: B1 light
notes: as for B1
B9: M103205H795-MY392/M103202L889-SK1 (antibody, human IgG1, kappa)
heavy: B1 heavy with N238T, L297Q, S300L, T328K
light: B1 light
notes: as for B1
B10: M103205H795-MY515/M103202L889-SK1 (antibody, human IgG1, kappa)
heavy: B1 heavy with N238T, S300L, T328K
light: B1 light
notes: as for B1
B11: M103205H795-MY388/M103202L889-SK1 (antibody, human IgG1, kappa)
heavy: B1 heavy with N238T, S241I, L297Q, T328K
light: B1 light
notes: as for B1
B12: M103205H795-MY386/M103202L889-SK1 (antibody, human IgG1, kappa)
heavy: B1 heavy with N238L
light: B1 light
notes: as for B1
B13: M103205H795-MY283/M103202L889-SK1 (antibody, human IgG1, kappa)
heavy: B1 heavy with N238T, T328K
light: B1 light
notes: as for B1
B14: M103205H795-MY342/M103202L889-SK1 (antibody, human IgG1, kappa)
heavy: B1 heavy with N238L, T328K, P398M
light: B1 light
notes: as for B1
B15: M103205H795-MY339/M103202L889-SK1 (antibody, human IgG1, kappa)
heavy: B1 heavy with N238L, L297Q, P398K
light: B1 light
notes: as for B1
B16: M103205H795-MY380/M103202L889-SK1 (antibody, human IgG1, kappa)
heavy: B1 heavy with D270E, L297Q, T328K, P398K
light: B1 light
notes: as for B1

Molecular target: T1, cynomolgus monkey FcγRIIa1 …
Assay: SPR (BIACORE), antibody captured, FcgR analyte

Row | Kd [nM] | Binder
1 | 630 | B1
2 | 2500 | B2
3 | 2000 | B3
4 | 2300 | B4
5 | 18000 | B5
6 | 150 | B6
7 | 4300 | B7
8 | 260 | B8
9 | 300 | B9
10 | 140 | B10
11 | 2200 | B11
12 | 5200 | B12
13 | 1400 | B13
14 | 5100 | B14
15 | 3400 | B15

Molecular target: T2, cynomolgus monkey FcγRIIa2 …
Assay: SPR (BIACORE), antibody captured, FcgR analyte

Row | Kd [nM] | Binder
16 | 690 | B1
17 | 2900 | B2
18 | 16000 | B3
19 | 19000 | B4
20 | 2200 | B5
21 | 13000 | B6
22 | 4900 | B7
23 | 1600 | B8
24 | 2300 | B9
25 | 1600 | B10
26 | 1700 | B11
27 | 1000 | B16
28 | 5600 | B12
29 | 1600 | B13
30 | 8500 | B14
31 | 3000 | B15

Molecular target: T3, cynomolgus monkey FcγRIIa3 …
Assay: SPR (BIACORE), antibody captured, FcgR analyte

Row | Kd [nM] | Binder
32 | 1900 | B1
33 | 8800 | B2
34 | 1400 | B3
35 | 1400 | B4
36 | 3800 | B5
37 | 790 | B6
38 | 23000 | B7
39 | 1500 | B8
40 | 3900 | B9
41 | 2900 | B10
42 | 1300 | B11
43 | 3300 | B16
44 | 16000 | B12
45 | 4400 | B13
46 | 51000 | B14
47 | 3800 | B15

Molecular target: T4, cynomolgus monkey FcγRIIb extracellular …
Assay: SPR (BIACORE), antibody captured, FcgR analyte

Row | Kd [nM] | Binder
48 | 190 | B1
49 | 600 | B2
50 | 700 | B3
51 | 830 | B4
52 | 630 | B5
53 | 450 | B6
54 | 1100 | B7
55 | 760 | B8
56 | 700 | B9
57 | 390 | B10
58 | 760 | B11
59 | 290 | B16
60 | 1500 | B12
61 | 420 | B13
62 | 1300 | B14
63 | 750 | B15

Each binder was assayed against T5, human FcγRIIaH extracellular domain … (assay: SPR (BIACORE), antibody captured, FcgR analyte).

Row | Kd [nM] | Binder
64 | 570 | B1
65 | 260 | B2
66 | 270 | B3
67 | 340 | B4
68 | 420 | B5
69 | 220 | B6
70 | 310 | B7
71 | 350 | B8
72 | 430 | B9
73 | 220 | B10
74 | 330 | B11
75 | 430 | B16
76 | 810 | B12
77 | 140 | B13
78 | 370 | B14
79 | 410 | B15

Molecular target: T6, human FcγRIIaR extracellular domain …
Assay: SPR (BIACORE), antibody captured, FcgR analyte

Row | Kd [nM] | Binder
80 | 880 | B1
81 | 420 | B2
82 | 190 | B3
83 | 200 | B4
84 | 740 | B5
85 | 85 | B6
86 | 830 | B7
87 | 160 | B8
88 | 410 | B9
89 | 260 | B10
90 | 230 | B11
91 | 850 | B16
92 | 1700 | B12
93 | 350 | B13
94 | 1000 | B14
95 | 530 | B15

Each binder was assayed against T7, human FcγRIIb extracellular domain with … (assay: SPR (BIACORE), antibody captured, FcgR analyte).

Row | Kd [nM] | Binder
96 | 500 | B1
97 | 1800 | B2
98 | 1100 | B3
99 | 1600 | B4
100 | 2500 | B5
101 | 510 | B6
102 | 3300 | B7
103 | 690 | B8
104 | 1700 | B9
105 | 1200 | B10
106 | 1500 | B11
107 | 480 | B16
108 | 4600 | B12
109 | 1800 | B13
110 | 3900 | B14
111 | 2800 | B15

The binders below were run against T8, human FcγRIIIaV extracellular domain with C-terminal His-tag (human, UniProt P08637 17-208) (assay: SPR (BIACORE), antibody captured, FcgR analyte).
T8 construct: also called human FcgRIIIaV
T8 sequence (P08637 17-208 F176V): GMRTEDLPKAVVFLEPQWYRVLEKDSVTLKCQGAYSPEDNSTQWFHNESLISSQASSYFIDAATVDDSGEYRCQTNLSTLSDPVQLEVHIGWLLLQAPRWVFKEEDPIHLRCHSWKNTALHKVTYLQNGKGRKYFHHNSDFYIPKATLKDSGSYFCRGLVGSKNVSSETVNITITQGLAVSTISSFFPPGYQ

Row | Kd [nM] | Binder
112 | 14000 | B1
113 | 7000 | B2
114 | 3500 | B3
115 | 4700 | B4
116 | 7800 | B5
117 | 6700 | B6
118 | 17000 | B7
119 | 8800 | B8
120 | 8300 | B9
121 | 9000 | B10
122 | 4300 | B11
123 | 10000 | B16
124 | 24000 | B12
125 | 5700 | B13
126 | 25000 | B14
127 | 5600 | B15
